One block for each substance: values may come before it.
Assays:
Experiment in all cases: cryo-EM structure
[1] = target: H. catenoides kalium channelrhodopsin (HcKCR1), wildtype (Hyphochytrium catenoides)
[2] = target: higher potassium selective channelrhodopsin (B1ChR2) from Bilabrum sp (Bilabrum sp)
[3] = target: sodium selective channelrhodopsin HcCCR from H. catenoides (Hyphochytrium catenoides)

stoichiometry N [1]: 3
Substance: H. catenoides kalium channelrhodopsin (HcKCR1), wildtype (natural protein)

stoichiometry N [2]: 3
Substance: higher potassium selective channelrhodopsin (B1ChR2) from Bilabrum sp (natural protein)

stoichiometry N [3]: 3
Substance: sodium selective channelrhodopsin HcCCR from H. catenoides (natural protein)
